The text below walks through data of publication PMC13045352, “Mapping Epidermal Growth Factor Receptor‑1 Sorting Domains in Endosomes with a Calibrated Three-Dimensional Expansion Microscopy Toolkit” (ACS Nano, 2026).

The data set concerns the molecule itself. As to the kind of experiment: negative-stain transmission electron microscopy; purified nanocages on glow-discharged carbon film-coated grids, stained with uranyl formate; particle widths measured (mean 28.3 nm).

B1: I3-01_60eGFP monomer of the self-assembling 60-subunit nanocage (one N-terminal eGFP per subunit) (other)
chain: GSGGSGGSGGSGGSGKIEELFKKHKIVAVLRANSVEEAKKKALAVFLGGVHLIEITFTVPDADTVIKELSFLKEMGAIIGAGTVTSVEQCRKAVESGAEFIVSPHLDEEISQFCKEKGVFYMPGVMTPTELVKAMKLGHTILKLFPGEVVGPQFVKAMKGPFPNVKFVPTGGVNLDNVCEWFKAGVLAVGVGSALVKGTPVEVAEKAKAFVEKIRGCTEGSGSGSGSGS
notes: linker between the vector's eGFP and I3-01; begins with the BamHI site GGATCC; I3-01 designed nanocage subunit (David Baker's laboratory); C-terminal linker before the stop codon; Printed molecular weight of the monomer 55.72 kDa; also called 60mer decahedral nanocage; source: HeLa cells, transfected, purified from lysate (centrifugation, 1 MDa spin concentrator); also expressed in RPE-1 cells; …
On to B1, for which the binding result is “binds”.
